Assay results from patent publication US20120283168A1.
Square brackets hold non-standard residues; d marks the D form. Oic = O=C(O)[C@@H]1C[C@@H]2CCCC[C@@H]2N1; Tic = O=C(O)[C@@H]1Cc2ccccc2CN1; Dab = NCC[C@H](N)C(=O)O; Deg = CCC(N)(CC)C(=O)O; Aib = CC(C)(N)C(=O)O

molecular target: human CCR10 (human) (UniProt P46092); test: cell-based or functional assay
Sequence (P46092 whole entry): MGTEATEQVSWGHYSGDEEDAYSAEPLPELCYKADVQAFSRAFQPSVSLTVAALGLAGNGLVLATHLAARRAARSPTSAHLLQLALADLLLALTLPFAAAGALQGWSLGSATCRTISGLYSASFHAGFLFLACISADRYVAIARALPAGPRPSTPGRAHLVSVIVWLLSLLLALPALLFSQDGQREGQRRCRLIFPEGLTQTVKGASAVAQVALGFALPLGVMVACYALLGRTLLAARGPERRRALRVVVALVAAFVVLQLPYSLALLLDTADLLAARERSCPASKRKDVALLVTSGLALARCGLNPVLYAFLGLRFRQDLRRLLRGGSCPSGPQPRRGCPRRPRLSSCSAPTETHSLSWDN

| IC50 (nM) Calcium Flux Assay | IC50 (nM) Chemotaxis Assay | Substance |
| --- | --- | --- |
| 393 nM | 7.2 nM | cyclo(-Trp-Ac7c-Trp-Dab-^DPro-Oic-) (peptide) |
| 200 nM | 21.6 nM | cyclo(W[Aib]W[Dab][dP][Tic]) |
| 26.1 nM | 2.3 nM | cyclo(-Trp-Cyp-Trp-Dab-^DPro-Pro((4R)Bn)-) (peptide) |
| 823 nM | 21.9 nM | cyclo(-Trp-4,4-AC-ThioTHP-Trp-Dab-^DPro-Oic-) (peptide) |
| 48.9 nM | 143 nM | cyclo(-Trp-Cyp-Trp-Dab-^DPro-Hyp(4CNBn)-) (peptide) |
| 52.7 nM | – | cyclo(-Trp-Cyp-Trp-Dap-^DPro-Oic-) (peptide) |
| 57 nM | – | cyclo(-Trp-Cyp-Trp-Dab-^DAze-Tic-) (peptide) |
| 6.4 nM | – | cyclo(-Trp-Cyp-Trp-Dab(4Me2NPhSO2)-^DPro-Oic-) (peptide) |
| 1060 nM | 16.4 nM | cyclo(-Trp-Cyp-Trp-Ala(Ppz)-^DPro-Oic-) (peptide) |
| 82.5 nM | 14.2 nM | cyclo(-Trp-Cyp-Trp-Dab-^DPro-Pro(5,5Me2)-) (peptide) |
| 58.6 nM | 38.7 nM | cyclo(-Trp-Cyp-Phe(4CF3)-Dab-^DPro-Oic-) (peptide) |
| 40.4 nM | 4.2 nM | cyclo(-OctG-Cyp-Trp-Dab-^DPro-Oic-) (peptide) |
| 21.7 nM | – | cyclo(-Phe(4CN)-Cyp-Trp-Gln-^DPro-Hyp(Bn)-) (peptide) |
| 42 nM | 37 nM | cyclo(-Trp-Cyp-Trp-Dab-^DPro-Hyp(Ph)-) (peptide) |
| 706 nM | 257 nM | cyclo(-Trp-Ac8c-Trp-Dab-^DPro-Oic-) (peptide) |
| 12 nM | 1.8 nM | cyclo(-Trp-Cyp-Trp-hSer(Me)-^DPro-Oic-) (peptide) |
| 548 nM | 11.6 nM | cyclo(-Trp(5OH)-Chx-Trp(5OH)-Arg-^DPro-Oic-) (peptide) |
| 20.4 nM | 5.4 nM | cyclo(-Trp-Cyp-Trp-Thr-^DPro-Oic-) (peptide) |
| – | 4.4 nM | cyclo(-Trp-Cyp-Trp-Lys(Me)-^DPro-Oic-) (peptide) |
| 70.4 nM | – | cyclo(-Trp-Cyp-Trp-Arg-^DAze-Tic-) (peptide) |
| 860 nM | 42 nM | cyclo(-Trp-Cyp-Trp-Dab-^DPro-Pro((4S)F)-) (peptide) |
| 4.8 nM | 1.2 nM | cyclo(-Trp-Cyp-Trp-Met(O2)-^DPro-Oic-) (peptide) |
| 25.1 nM | 1 nM | cyclo(-Trp-Cyp-Trp-Gln(iPr)-^DPro-Oic-) (peptide) |
| 246 nM | – | cyclo(-Trp(5OH)-Cyp-Trp(5OH)-Dap-^DPro-Oic-) (peptide) |
| 54.9 nM | 8.7 nM | cyclo(-Trp-Cyp-Trp-hCys-^DPro-Oic-) (peptide) |
| 1.9 nM | 13.5 nM | cyclo(-Phe(4CN)-Cyp-Phe(4F)-Ser-^DPro-Hyp(Bn)-) (peptide) |
| 25 nM | 3.7 nM | cyclo(-Trp-Cyp-Trp-hArg-^DPro-Oic-) (peptide) |
| 262 nM | 17.8 nM | cyclo(-Trp-Chx(4-oxo)-Trp-Dab-^DPro-Oic-) (peptide) |

| IC50 (nM) Calcium Flux Assay | IC50 (nM) Chemotaxis Assay | Substance |
| --- | --- | --- |
| 8.1 nM | 5.6 nM | cyclo(-Trp-Cyp-Trp-Dab((MeO(CH2)2)(Me)NCO)-^DPro-Oic-) (peptide) |
| 8.1 nM | 1.8 nM | cyclo(-Bip-Cyp-Trp-Dab-^DPro-Oic-) (peptide) |
| 26 nM | 17 nM | cyclo(-Trp-Cyp-Trp-Dab-^DPip-Oic-) (peptide) |
| 190 nM | – | cyclo(-Trp-Cyp-Trp-Dab-^DPro-Hyp-) (peptide) |
| 8.5 nM | 8.6 nM | cyclo(-Trp(6Cl)-Cyp-Trp-Dab-^DPro-Hyp(Bn)-) (peptide) |
| 6.1 nM | 2.7 nM | cyclo(-Trp-Cyp-Phe(4Cl)-Ser-^DPro-Oic-) (peptide) |
| 1.1 nM | 1.7 nM | cyclo(-Tyr(Ph)-Cyp-Trp-Dab-^DPro-Oic-) (peptide) |
| 62.8 nM | 11.5 nM | cyclo(-Trp-Cyp-Trp-Dab(MEMCO)-^DPro-Oic-) (peptide) |
| 107 nM | 5.9 nM | cyclo(-Trp-Cyp-Trp-Lys(4Oxa)-^DPro-Oic-) (peptide) |
| 123 nM | 29 nM | cyclo(-Trp-Cyp-Trp-Dab-^DPro-Oic-) (peptide) |
| – | 16.6 nM | cyclo(-Nle(6OBn)-Cyp-Trp-Dab-^DPro-Oic-) (peptide) |
| 146 nM | 76.1 nM | cyclo(W[Deg]W[Dab][dP][Oic]) |
| 54.3 nM | 140 nM | cyclo(-Trp-Cyp-Trp-Dab-^DPro-Pro((4S)cHex)-) (peptide) |
| 476 nM | 14.7 nM | cyclo(-Phe(4COOMe)-Cyp-Trp-Dab-^DPro-Oic-) (peptide) |
| 20 nM | 4.7 nM | cyclo(-Trp-Cyp-Trp-Dap(CONH2)-^DPro-Oic-) (peptide) |
| 144 nM | 3.1 nM | cyclo(-Trp(5OH)-Cyp-Trp-Gln-^DPro-Thz-) (peptide) |
| 9.2 nM | 2 nM | cyclo(-2Nal-Cyp-Trp-Gln-^DPro-Tic-) (peptide) |
| 46.4 nM | 10.1 nM | cyclo(-Trp-Cyp-Trp-Ser(Me)-^DPro-Oic-) (peptide) |
| 243 nM | – | cyclo(-Cha-Cyp-Trp-Dab-^DPro-Oic-) (peptide) |
| 0.2 nM | 3.4 nM | cyclo(-Trp-Cyp-Trp-Dab(MeSO2)-^DPro-Oic-) (peptide) |
| 65.8 nM | 14 nM | cyclo(-Trp-Cyp-Trp-Dab-^DPro-Hyp(Bn)-) (peptide) |
| 120 nM | – | cyclo(-Trp-Cyp-Phe(4F)-Dab-^DPro-Oic-) (peptide) |
| 3 nM | 2.7 nM | cyclo(-Trp-Cyp-Trp-Lys(Bz)-^DPro-Oic-) (peptide) |
| 214 nM | 3.8 nM | cyclo(-Trp-Cyp-Tyr(Me)-Dab-^DPro-Oic-) (peptide) |
| 61.6 nM | 1.4 nM | cyclo(-Trp-Cyp-Trp-Ser-^DPro-Oic-) (peptide) |
| 48.9 nM | 6.6 nM | cyclo(-Tyr(40HPh)-Cyp-Trp-Dab-^DPro-Oic-) (peptide) |
| 608 nM | – | cyclo(-Trp-^DLAtc-Trp-Dab-^DPro-Oic-) (peptide) |
